{"source": "patent US20030199671A1", "about": "“Binding molecules for Fc-region polypeptides” (priority 2001, published 2003)", "key": {"[1]": {"biological_target": "human IgG1 (human) [IgG part: P01857]", "sequence (P01857 other isoform, or with tags, fused parts or gaps)": "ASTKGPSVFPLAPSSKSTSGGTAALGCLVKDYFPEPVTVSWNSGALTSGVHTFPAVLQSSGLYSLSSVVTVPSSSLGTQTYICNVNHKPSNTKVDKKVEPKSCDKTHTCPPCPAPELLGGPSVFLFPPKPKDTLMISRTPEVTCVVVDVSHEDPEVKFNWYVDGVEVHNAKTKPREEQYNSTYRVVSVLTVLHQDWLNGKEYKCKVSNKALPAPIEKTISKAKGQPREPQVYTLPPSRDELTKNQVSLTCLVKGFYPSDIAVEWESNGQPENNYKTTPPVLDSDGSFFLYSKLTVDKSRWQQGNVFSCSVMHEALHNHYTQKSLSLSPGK", "test": "mini-column chromatography, immobilised ligand"}, "[2]": {"biological_target": "human IgG2 (human) [IgG part: P01859]", "sequence (P01859 other isoform, or with tags, fused parts or gaps)": "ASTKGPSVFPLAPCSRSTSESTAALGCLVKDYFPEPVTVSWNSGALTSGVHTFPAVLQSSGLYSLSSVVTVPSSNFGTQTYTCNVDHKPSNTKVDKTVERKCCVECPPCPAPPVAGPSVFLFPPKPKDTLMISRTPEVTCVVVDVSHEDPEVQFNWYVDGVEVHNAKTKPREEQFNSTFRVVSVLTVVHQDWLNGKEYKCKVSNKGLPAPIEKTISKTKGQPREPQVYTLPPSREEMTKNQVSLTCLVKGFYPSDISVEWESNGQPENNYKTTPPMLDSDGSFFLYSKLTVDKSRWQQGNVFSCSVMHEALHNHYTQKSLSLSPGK", "test": "mini-column chromatography, immobilised ligand"}, "[3]": {"biological_target": "human IgG4 (human) [IgG part: P01861]", "sequence (P01861 other isoform, or with tags, fused parts or gaps)": "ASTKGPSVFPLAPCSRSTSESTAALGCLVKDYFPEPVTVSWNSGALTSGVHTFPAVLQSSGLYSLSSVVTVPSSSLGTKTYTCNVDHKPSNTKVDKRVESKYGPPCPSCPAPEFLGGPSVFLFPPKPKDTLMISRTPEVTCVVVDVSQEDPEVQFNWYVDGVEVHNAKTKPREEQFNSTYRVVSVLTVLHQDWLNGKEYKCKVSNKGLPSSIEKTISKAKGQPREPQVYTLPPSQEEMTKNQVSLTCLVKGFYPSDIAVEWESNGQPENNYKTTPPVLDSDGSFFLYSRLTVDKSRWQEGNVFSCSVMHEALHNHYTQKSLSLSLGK", "test": "mini-column chromatography, immobilised ligand"}, "[4]": {"biological_target": "human IgG1 (human) [IgG part: P01857]", "test": "batch binding, immobilised ligand"}, "[5]": {"biological_target": "human IgG2 (human) [IgG part: P01859]", "test": "batch binding, immobilised ligand"}, "human IgG3 (human)": {"biological_target": "human IgG3 (human) (UniProt P01860)", "sequence (P01860 other isoform, or with tags, fused parts or gaps)": "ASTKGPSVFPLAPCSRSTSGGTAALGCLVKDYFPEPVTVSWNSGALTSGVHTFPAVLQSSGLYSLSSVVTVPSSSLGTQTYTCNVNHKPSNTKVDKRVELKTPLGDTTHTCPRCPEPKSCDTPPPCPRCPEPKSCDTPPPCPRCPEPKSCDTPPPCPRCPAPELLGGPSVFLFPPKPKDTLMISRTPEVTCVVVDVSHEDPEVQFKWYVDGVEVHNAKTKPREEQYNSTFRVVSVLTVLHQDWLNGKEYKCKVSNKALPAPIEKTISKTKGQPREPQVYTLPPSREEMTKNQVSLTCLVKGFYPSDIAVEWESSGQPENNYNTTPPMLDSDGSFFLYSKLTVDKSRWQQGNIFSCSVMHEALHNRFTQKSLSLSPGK", "test": "batch binding, immobilised ligand"}, "[6]": {"biological_target": "human IgG4 (human) [IgG part: P01861]", "test": "batch binding, immobilised ligand"}, "[7]": {"biological_target": "human IgG (unfractionated, polyclonal)", "test": "filterplate; ligand density not determined"}, "[8]": {"biological_target": "human IgG (unfractionated, polyclonal)", "test": "mini-column; ligand density not determined"}}, "data": [{"substance": "Protein A (from UniProt P38507 37-327)", "values": [{"measurement": "binding efficiency", "setting": "[1]", "value": "> 90", "unit": "%"}, {"measurement": "binding efficiency", "setting": "[2]", "value": "> 90", "unit": "%"}, {"measurement": "binding efficiency", "setting": "[3]", "value": "> 90", "unit": "%"}, {"measurement": "Bound (% of Total Load)", "setting": "[4]", "value": 96, "unit": "%"}, {"measurement": "bdg % (of Total Load)", "setting": "[4]", "value": 93, "unit": "%"}, {"measurement": "Bound (% of Total Load)", "setting": "[5]", "value": 85, "unit": "%"}, {"measurement": "bdg % (of Total Load)", "setting": "[5]", "value": 93, "unit": "%"}, {"measurement": "Bound (% of Total Load)", "setting": "human IgG3 (human)", "value": 0, "unit": "%"}, {"measurement": "bdg % (of Total Load)", "setting": "human IgG3 (human)", "value": 5, "unit": "%"}, {"measurement": "Bound (% of Total Load)", "setting": "[6]", "value": 89, "unit": "%"}, {"measurement": "bdg % (of Total Load)", "setting": "[6]", "value": 92, "unit": "%"}, {"measurement": "Static Capacity (mg IgG/mL resin)", "setting": "[7]", "value": 11.1}, {"measurement": "10% Breakthrough Capacity (mg IgG/mL resin)", "setting": "[8]", "value": 12.9}, {"measurement": "Total Dynamic Capacity (mg IgG/mL resin)", "setting": "[8]", "value": 16.3}]}]}
